Results published in paper PMC3627602.

Target: Q338H MBP–MUTYH (human)
Assay: pull-down

percent reduction of HUS1 associated, against wild-type MUTYH | percent reduction of RAD9 associated, against wild-type MUTYH | percent reduction of RAD9 bound, against wild-type MUTYH | Binder
80% | > 50% | – | RAD9:RAD1:HUS1 (9–1–1) complex, endogenous in HeLa nuclear extract (complex) chain 1: MKCLVTGGNVKVLGKAVHSLSRIGDELYLEPLEDGLSLRTVNSSRSAYACFLFAPLFFQQYQAATPGQDLLRCKILMKSFLSVFRSLAMLEKTVEKCCISLNGRSSRLVVQLHCKFGVRKTHNLSFQDCESLQAVFDPASCPHMLRAPARVLGEAVLPFSPALAEVTLGIGRGRRVILRSYHEEEADSTAKAMVTEMCLGEEDFQQLQAQEGVAITFCLKEFRGLLSFAESANLNLSIHFDAPGRPAIFTIKDSLLDGHFVLATLSDTDSHSQDLGSPERHQPVPQLQAHSTPHPDDFANDDIDSYMIAMETTIGNEGSRVLPSISLSPGPQPPKSPGPHSEEEDEAEPSTVPGTPPPKKFRSLFFGSILAPVRSPQGPSPVLAEDSEGEG chain 2: MPLLTQQIQDEDDQYSLVASLDNVRNLSTILKAIHFREHATCFATKNGIKVTVENAKCVQANAFIQAGIFQEFKVQEESVTFRINLTVLLDCLSIFGSSPMPGTLTALRMCYQGYGYPLMLFLEEGGVVTVCKINTQEPEETLDFDFCSTNVINKIILQSEGLREAFSELDMTSEVLQITMSPDKPYFRLSTFGNAGSSHLDYPKDSDLMEAFHCNQTQVNRYKISLLKPSTKALVLSCKVSIRTDNRGFLSLQYMIRNEDGQICFVEYYCCPDEEVPESES chain 3: MKFRAKIVDGACLNHFTRISNMIAKLAKTCTLRISPDKLNFILCDKLANGGVSMWCELEQENFFNEFQMEGVSAENNEIYLELTSENLSRALKTAQNARALKIKLTNKHFPCLTVSVELLSMSSSSRIVTHDIPIKVIPRKLWKDLQEPVVPDPDVSIYLPVLKTMKSVVEKMKNISNHLVIEANLDGELNLKIETELVCVTTHFKDLGNPPLASESTHEDRNVEHMAEVHIDIRKLLQFLAGQQVNPTKALCNIVNNKMVHFDLLHEDVSLQYFIPALS
– | – | 50% | purified recombinant RAD9:RAD1:HUS1 (9–1–1) complex (complex) chain 1: MKCLVTGGNVKVLGKAVHSLSRIGDELYLEPLEDGLSLRTVNSSRSAYACFLFAPLFFQQYQAATPGQDLLRCKILMKSFLSVFRSLAMLEKTVEKCCISLNGRSSRLVVQLHCKFGVRKTHNLSFQDCESLQAVFDPASCPHMLRAPARVLGEAVLPFSPALAEVTLGIGRGRRVILRSYHEEEADSTAKAMVTEMCLGEEDFQQLQAQEGVAITFCLKEFRGLLSFAESANLNLSIHFDAPGRPAIFTIKDSLLDGHFVLATLSDTDSHSQDLGSPERHQPVPQLQAHSTPHPDDFANDDIDSYMIAMETTIGNEGSRVLPSISLSPGPQPPKSPGPHSEEEDEAEPSTVPGTPPPKKFRSLFFGSILAPVRSPQGPSPVLAEDSEGEG chain 2: MPLLTQQIQDEDDQYSLVASLDNVRNLSTILKAIHFREHATCFATKNGIKVTVENAKCVQANAFIQAGIFQEFKVQEESVTFRINLTVLLDCLSIFGSSPMPGTLTALRMCYQGYGYPLMLFLEEGGVVTVCKINTQEPEETLDFDFCSTNVINKIILQSEGLREAFSELDMTSEVLQITMSPDKPYFRLSTFGNAGSSHLDYPKDSDLMEAFHCNQTQVNRYKISLLKPSTKALVLSCKVSIRTDNRGFLSLQYMIRNEDGQICFVEYYCCPDEEVPESES chain 3: MKFRAKIVDGACLNHFTRISNMIAKLAKTCTLRISPDKLNFILCDKLANGGVSMWCELEQENFFNEFQMEGVSAENNEIYLELTSENLSRALKTAQNARALKIKLTNKHFPCLTVSVELLSMSSSSRIVTHDIPIKVIPRKLWKDLQEPVVPDPDVSIYLPVLKTMKSVVEKMKNISNHLVIEANLDGELNLKIETELVCVTTHFKDLGNPPLASESTHEDRNVEHMAEVHIDIRKLLQFLAGQQVNPTKALCNIVNNKMVHFDLLHEDVSLQYFIPALS
